Measurements reported in article PMC9704708 (Proceedings of the National Academy of Sciences of the …, 2022).

Columns and labels:
[1] = molecular target: cytochrome c endogenous in bovine aortic endothelial cells (Bos taurus, UniProt P62894); assay: immunostaining of cells or tissue
[2] = molecular target: cytochrome c endogenous in Vero cells (Chlorocebus (African green monkey), …, UniProt G4XXN2); assay: immunostaining of cells or tissue
[3] = molecular target: T1, cytochrome c endogenous in mouse melanoma B16-F1 cells (Mus musculus, UniProt P62897); assay: immunostaining of cells or tissue
[4] = molecular target: cytochrome c endogenous in human cells (HeLa, IMR-90) (Homo sapiens, UniProt P99999); assay: immunostaining of cells or tissue
[5] = molecular target: 1–65 CNBr-cleaved peptide of cytochrome c (Equus caballus (assumed), UniProt P00004); assay: ELISA
[6] = molecular target: T1, cytochrome c endogenous in mouse …; assay: flow cytometry on cells

Measured: binding result

T1 sequence (P62897 whole entry): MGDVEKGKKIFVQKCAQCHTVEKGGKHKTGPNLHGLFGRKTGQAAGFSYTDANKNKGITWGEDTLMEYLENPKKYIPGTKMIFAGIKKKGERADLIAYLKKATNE
Chain of 1–65 CNBr-cleaved peptide of cytochrome c (P00004 2-66): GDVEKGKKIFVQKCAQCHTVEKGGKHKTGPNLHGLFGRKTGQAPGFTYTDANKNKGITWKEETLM
Chain of cytochrome c endogenous in bovine aortic endothelial cells (P62894 whole entry): as the sequence (P62897 whole entry) above, with A45P, D63E, A93E counted along it
Chain of cytochrome c endogenous in human cells (HeLa, IMR-90) (P99999 whole entry): as the sequence (P62897 whole entry) above, with V12I, Q13M, A16S, A45P, F47Y, D51A, T59I, A84V, G90E counted along it

B1: monoclonal antibody 1D3 (original, hybridoma-derived) (antibody, V domains shown)
VH: QVQLQQPGAELVKPGASVKMSCKASGYTFTSNNMHWVKQTPGQGLEWIGGLYPGNGDTSYNQKFKGKATLTADKSSSTAYMQLSSLTSGDSAVYYCARGIRDFFAMDYWGQGTSVTVSS
VL: DIQMTQSPASQSASLGESVTITCLASQTIGTWLAWYQQKPGKSPQLLIYAATSLADGVPSRFSGSGSGTKFSFKISSLQAEDFVSYYCQQLYSTPLTFGAGTKLELK
binds: [1] | [2] | [3] | [4]

B2: recombinant monoclonal antibody R1D3 (antibody, V domains shown)
VH: QVQLQQPGAELVKPGASVKMSCKASGYTFTSNNMHWVKQTPGQGLEWIGGLYPGNGDTSYNQKFKGKATLTADKSSSTAYMQLSSLTSGDSAVYYCARGIRDFFAMDYWGQGTSVTVSS
VL: DIQMTQSPASQSASLGESVTITCLASQTIGTWLAWYQQKPGKSPQLLIYAATSLADGVPSRFSGSGSGTKFSFKISSLQAEDFVSYYCQQLYSTPLTFGAGTKLELK
binds: [2] | [5] | [6]
